Data from patent US20230002496A1 (STAIDSON BEIJING BIOPHARMACEUTICALS, published 2023).

T1: human GM-CSFRα, full length on cells (human, UniProt P15509 23-400)
T1 sequence: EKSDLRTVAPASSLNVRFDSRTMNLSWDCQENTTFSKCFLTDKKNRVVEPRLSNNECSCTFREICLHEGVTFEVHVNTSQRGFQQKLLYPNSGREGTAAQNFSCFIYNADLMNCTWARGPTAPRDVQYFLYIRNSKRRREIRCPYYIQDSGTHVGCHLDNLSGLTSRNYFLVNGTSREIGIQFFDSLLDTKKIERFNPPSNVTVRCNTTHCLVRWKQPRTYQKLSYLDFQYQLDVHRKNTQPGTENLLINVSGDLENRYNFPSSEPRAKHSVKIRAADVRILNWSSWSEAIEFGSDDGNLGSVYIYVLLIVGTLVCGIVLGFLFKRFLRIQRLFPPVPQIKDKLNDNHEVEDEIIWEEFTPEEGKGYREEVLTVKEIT

B1: E35-scFv LA51K (scFv, V domains shown)
VH: QMQLVQSGAEVKKPGASVKVSCKVSGYTLTELSIHWVRQAPGKGLEWMGGFDPEDGETIYAQKFQGRVTMTGDTSTDTAYLELSSLRSEDTALYYCATGRYTSLATTYGFDYWGQGTLVTVSS
VL: EIVMTQSPATLSLSPGERATLSCRASQSVSSYLAWYQQKPGQAPRLLIYGKSSRATGIPDRFSGSGSGTDFTLTISRLEPEDFAVYYCQQYDNWPYTFGQGTKLEIK
B2: E35-scFv LA51S (scFv, V domains shown)
VH: QMQLVQSGAEVKKPGASVKVSCKVSGYTLTELSIHWVRQAPGKGLEWMGGFDPEDGETIYAQKFQGRVTMTGDTSTDTAYLELSSLRSEDTALYYCATGRYTSLATTYGFDYWGQGTLVTVSS
VL: EIVMTQSPATLSLSPGERATLSCRASQSVSSYLAWYQQKPGQAPRLLIYGSSSRATGIPDRFSGSGSGTDFTLTISRLEPEDFAVYYCQQYDNWPYTFGQGTKLEIK
B3: E35-scFv LA51T (scFv, V domains shown)
VH: QMQLVQSGAEVKKPGASVKVSCKVSGYTLTELSIHWVRQAPGKGLEWMGGFDPEDGETIYAQKFQGRVTMTGDTSTDTAYLELSSLRSEDTALYYCATGRYTSLATTYGFDYWGQGTLVTVSS
VL: EIVMTQSPATLSLSPGERATLSCRASQSVSSYLAWYQQKPGQAPRLLIYGTSSRATGIPDRFSGSGSGTDFTLTISRLEPEDFAVYYCQQYDNWPYTFGQGTKLEIK
B4: E35-scFv LA51M (scFv, V domains shown)
VH: QMQLVQSGAEVKKPGASVKVSCKVSGYTLTELSIHWVRQAPGKGLEWMGGFDPEDGETIYAQKFQGRVTMTGDTSTDTAYLELSSLRSEDTALYYCATGRYTSLATTYGFDYWGQGTLVTVSS
VL: EIVMTQSPATLSLSPGERATLSCRASQSVSSYLAWYQQKPGQAPRLLIYGMSSRATGIPDRFSGSGSGTDFTLTISRLEPEDFAVYYCQQYDNWPYTFGQGTKLEIK
B5: E35-scFv LA51F (scFv, V domains shown)
VH: QMQLVQSGAEVKKPGASVKVSCKVSGYTLTELSIHWVRQAPGKGLEWMGGFDPEDGETIYAQKFQGRVTMTGDTSTDTAYLELSSLRSEDTALYYCATGRYTSLATTYGFDYWGQGTLVTVSS
VL: EIVMTQSPATLSLSPGERATLSCRASQSVSSYLAWYQQKPGQAPRLLIYGFSSRATGIPDRFSGSGSGTDFTLTISRLEPEDFAVYYCQQYDNWPYTFGQGTKLEIK
B6: E35-scFv LA51N (scFv, V domains shown)
VH: QMQLVQSGAEVKKPGASVKVSCKVSGYTLTELSIHWVRQAPGKGLEWMGGFDPEDGETIYAQKFQGRVTMTGDTSTDTAYLELSSLRSEDTALYYCATGRYTSLATTYGFDYWGQGTLVTVSS
VL: EIVMTQSPATLSLSPGERATLSCRASQSVSSYLAWYQQKPGQAPRLLIYGNSSRATGIPDRFSGSGSGTDFTLTISRLEPEDFAVYYCQQYDNWPYTFGQGTKLEIK
B7: E35-scFv LA51V (scFv, V domains shown)
VH: QMQLVQSGAEVKKPGASVKVSCKVSGYTLTELSIHWVRQAPGKGLEWMGGFDPEDGETIYAQKFQGRVTMTGDTSTDTAYLELSSLRSEDTALYYCATGRYTSLATTYGFDYWGQGTLVTVSS
VL: EIVMTQSPATLSLSPGERATLSCRASQSVSSYLAWYQQKPGQAPRLLIYGVSSRATGIPDRFSGSGSGTDFTLTISRLEPEDFAVYYCQQYDNWPYTFGQGTKLEIK
B8: E35-scFv LA51C (scFv, V domains shown)
VH: QMQLVQSGAEVKKPGASVKVSCKVSGYTLTELSIHWVRQAPGKGLEWMGGFDPEDGETIYAQKFQGRVTMTGDTSTDTAYLELSSLRSEDTALYYCATGRYTSLATTYGFDYWGQGTLVTVSS
VL: EIVMTQSPATLSLSPGERATLSCRASQSVSSYLAWYQQKPGQAPRLLIYGCSSRATGIPDRFSGSGSGTDFTLTISRLEPEDFAVYYCQQYDNWPYTFGQGTKLEIK
B9: E35-scFv LA51L (scFv, V domains shown)
VH: QMQLVQSGAEVKKPGASVKVSCKVSGYTLTELSIHWVRQAPGKGLEWMGGFDPEDGETIYAQKFQGRVTMTGDTSTDTAYLELSSLRSEDTALYYCATGRYTSLATTYGFDYWGQGTLVTVSS
VL: EIVMTQSPATLSLSPGERATLSCRASQSVSSYLAWYQQKPGQAPRLLIYGLSSRATGIPDRFSGSGSGTDFTLTISRLEPEDFAVYYCQQYDNWPYTFGQGTKLEIK
B10: E35-scFv LA51E (scFv, V domains shown)
VH: QMQLVQSGAEVKKPGASVKVSCKVSGYTLTELSIHWVRQAPGKGLEWMGGFDPEDGETIYAQKFQGRVTMTGDTSTDTAYLELSSLRSEDTALYYCATGRYTSLATTYGFDYWGQGTLVTVSS
VL: EIVMTQSPATLSLSPGERATLSCRASQSVSSYLAWYQQKPGQAPRLLIYGESSRATGIPDRFSGSGSGTDFTLTISRLEPEDFAVYYCQQYDNWPYTFGQGTKLEIK
B11: E35-scFv LA51W (scFv, V domains shown)
VH: QMQLVQSGAEVKKPGASVKVSCKVSGYTLTELSIHWVRQAPGKGLEWMGGFDPEDGETIYAQKFQGRVTMTGDTSTDTAYLELSSLRSEDTALYYCATGRYTSLATTYGFDYWGQGTLVTVSS
VL: EIVMTQSPATLSLSPGERATLSCRASQSVSSYLAWYQQKPGQAPRLLIYGWSSRATGIPDRFSGSGSGTDFTLTISRLEPEDFAVYYCQQYDNWPYTFGQGTKLEIK
B12: E35-scFv LA51P (scFv, V domains shown)
VH: QMQLVQSGAEVKKPGASVKVSCKVSGYTLTELSIHWVRQAPGKGLEWMGGFDPEDGETIYAQKFQGRVTMTGDTSTDTAYLELSSLRSEDTALYYCATGRYTSLATTYGFDYWGQGTLVTVSS
VL: EIVMTQSPATLSLSPGERATLSCRASQSVSSYLAWYQQKPGQAPRLLIYGPSSRATGIPDRFSGSGSGTDFTLTISRLEPEDFAVYYCQQYDNWPYTFGQGTKLEIK
B13: E35-scFv LA51Q (scFv, V domains shown)
VH: QMQLVQSGAEVKKPGASVKVSCKVSGYTLTELSIHWVRQAPGKGLEWMGGFDPEDGETIYAQKFQGRVTMTGDTSTDTAYLELSSLRSEDTALYYCATGRYTSLATTYGFDYWGQGTLVTVSS
VL: EIVMTQSPATLSLSPGERATLSCRASQSVSSYLAWYQQKPGQAPRLLIYGQSSRATGIPDRFSGSGSGTDFTLTISRLEPEDFAVYYCQQYDNWPYTFGQGTKLEIK
B14: E35-scFv LG50T (scFv, V domains shown)
VH: QMQLVQSGAEVKKPGASVKVSCKVSGYTLTELSIHWVRQAPGKGLEWMGGFDPEDGETIYAQKFQGRVTMTGDTSTDTAYLELSSLRSEDTALYYCATGRYTSLATTYGFDYWGQGTLVTVSS
VL: EIVMTQSPATLSLSPGERATLSCRASQSVSSYLAWYQQKPGQAPRLLIYTASSRATGIPDRFSGSGSGTDFTLTISRLEPEDFAVYYCQQYDNWPYTFGQGTKLEIK
B15: E35-scFv LG50A (scFv, V domains shown)
VH: QMQLVQSGAEVKKPGASVKVSCKVSGYTLTELSIHWVRQAPGKGLEWMGGFDPEDGETIYAQKFQGRVTMTGDTSTDTAYLELSSLRSEDTALYYCATGRYTSLATTYGFDYWGQGTLVTVSS
VL: EIVMTQSPATLSLSPGERATLSCRASQSVSSYLAWYQQKPGQAPRLLIYAASSRATGIPDRFSGSGSGTDFTLTISRLEPEDFAVYYCQQYDNWPYTFGQGTKLEIK
B16: E35-scFv LG50D (scFv, V domains shown)
VH: QMQLVQSGAEVKKPGASVKVSCKVSGYTLTELSIHWVRQAPGKGLEWMGGFDPEDGETIYAQKFQGRVTMTGDTSTDTAYLELSSLRSEDTALYYCATGRYTSLATTYGFDYWGQGTLVTVSS
VL: EIVMTQSPATLSLSPGERATLSCRASQSVSSYLAWYQQKPGQAPRLLIYDASSRATGIPDRFSGSGSGTDFTLTISRLEPEDFAVYYCQQYDNWPYTFGQGTKLEIK
B17: E35-scFv LG50Q (scFv, V domains shown)
VH: QMQLVQSGAEVKKPGASVKVSCKVSGYTLTELSIHWVRQAPGKGLEWMGGFDPEDGETIYAQKFQGRVTMTGDTSTDTAYLELSSLRSEDTALYYCATGRYTSLATTYGFDYWGQGTLVTVSS
VL: EIVMTQSPATLSLSPGERATLSCRASQSVSSYLAWYQQKPGQAPRLLIYQASSRATGIPDRFSGSGSGTDFTLTISRLEPEDFAVYYCQQYDNWPYTFGQGTKLEIK
B18: E35-scFv LG50I (scFv, V domains shown)
VH: QMQLVQSGAEVKKPGASVKVSCKVSGYTLTELSIHWVRQAPGKGLEWMGGFDPEDGETIYAQKFQGRVTMTGDTSTDTAYLELSSLRSEDTALYYCATGRYTSLATTYGFDYWGQGTLVTVSS
VL: EIVMTQSPATLSLSPGERATLSCRASQSVSSYLAWYQQKPGQAPRLLIYIASSRATGIPDRFSGSGSGTDFTLTISRLEPEDFAVYYCQQYDNWPYTFGQGTKLEIK
B19: E35-scFv LG50S (scFv, V domains shown)
VH: QMQLVQSGAEVKKPGASVKVSCKVSGYTLTELSIHWVRQAPGKGLEWMGGFDPEDGETIYAQKFQGRVTMTGDTSTDTAYLELSSLRSEDTALYYCATGRYTSLATTYGFDYWGQGTLVTVSS
VL: EIVMTQSPATLSLSPGERATLSCRASQSVSSYLAWYQQKPGQAPRLLIYSASSRATGIPDRFSGSGSGTDFTLTISRLEPEDFAVYYCQQYDNWPYTFGQGTKLEIK
B20: E35-scFv LG50V (scFv, V domains shown)
VH: QMQLVQSGAEVKKPGASVKVSCKVSGYTLTELSIHWVRQAPGKGLEWMGGFDPEDGETIYAQKFQGRVTMTGDTSTDTAYLELSSLRSEDTALYYCATGRYTSLATTYGFDYWGQGTLVTVSS
VL: EIVMTQSPATLSLSPGERATLSCRASQSVSSYLAWYQQKPGQAPRLLIYVASSRATGIPDRFSGSGSGTDFTLTISRLEPEDFAVYYCQQYDNWPYTFGQGTKLEIK

These binders were tested against T1, human GM-CSFRα, full length on cells (assay: cell-based or functional assay).
For B1, the “IC50, TF-1 cell proliferation” value was 0.168 µg/mL. With B2 the “IC50, TF-1 cell proliferation” value was 0.18 µg/mL. With B3 the “IC50, TF-1 cell proliferation” value was 0.18 µg/mL. With B4 the “IC50, TF-1 cell proliferation” value was 0.264 µg/mL. With B5 the “IC50, TF-1 cell proliferation” value was 0.294 µg/mL. For B6, the “IC50, TF-1 cell proliferation” value was 0.36 µg/mL. In the case of B7, the “IC50, TF-1 cell proliferation” value is reported as 0.36 µg/mL. With B8 the “IC50, TF-1 cell proliferation” value was 0.37 µg/mL. B9 was tested, and the “IC50, TF-1 cell proliferation” value was 0.5 µg/mL. B10 was tested, and the “IC50, TF-1 cell proliferation” value was 0.81 µg/mL. With B11 the “IC50, TF-1 cell proliferation” value was 1.59 µg/mL. With B12 the “IC50, TF-1 cell proliferation” value was 2.1 µg/mL. In the case of B13, the “IC50, TF-1 cell proliferation” value is reported as 18.2 µg/mL. In the case of B14, the “IC50, TF-1 cell proliferation” value is reported as 0.25 µg/mL. For B15, the “IC50, TF-1 cell proliferation” value was 0.5 µg/mL. In the case of B16, the “IC50, TF-1 cell proliferation” value is reported as 0.88 µg/mL. B17 was tested, and the “IC50, TF-1 cell proliferation” value was 0.93 µg/mL. For B18, the “IC50, TF-1 cell proliferation” value was 1.08 µg/mL. B19 was tested, and the “IC50, TF-1 cell proliferation” value was 1.3 µg/mL. B20 was tested, and the “IC50, TF-1 cell proliferation” value was 1.4 µg/mL.
